One molecule from US20020090682A1 (AMRAD OPERATIONS, published 2002) can be followed below.

Experiment [1] deals with T1, IL-13Rα(NR4) expressed in CTLL cells (high affinity IL-13 receptor; cells also carry the IL-4 receptor) (murine, UniProt P16382 26-810). As to the kind of experiment: unlabelled IL-13 competing with 125I-IL-13 for binding to CTLL cells expressing the IL-13Rα(NR4).
The target of experiment [2] is T2, murine NR4 (IL-13 receptor α-chain, IL-13Rα) expressed in COS cells (murine, UniProt O09030 27-424).
T2 construct: also called IL-13Rα(NR4)
T2 sequence: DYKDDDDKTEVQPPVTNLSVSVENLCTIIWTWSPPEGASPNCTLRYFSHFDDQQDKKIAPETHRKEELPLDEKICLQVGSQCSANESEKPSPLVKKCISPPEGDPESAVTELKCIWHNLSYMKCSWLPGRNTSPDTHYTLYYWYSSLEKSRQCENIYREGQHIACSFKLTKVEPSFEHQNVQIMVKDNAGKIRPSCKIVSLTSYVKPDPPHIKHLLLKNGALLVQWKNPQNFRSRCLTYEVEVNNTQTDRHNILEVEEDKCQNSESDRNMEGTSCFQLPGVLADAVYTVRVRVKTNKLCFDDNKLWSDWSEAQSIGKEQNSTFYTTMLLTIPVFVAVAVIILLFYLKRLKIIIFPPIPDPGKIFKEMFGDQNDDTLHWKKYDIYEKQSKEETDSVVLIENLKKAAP
Put plainly: Scatchard analysis of 125I-IL-13 binding to COS cells expressing NR4.

Experiment [3] concerns the target T1, IL-13Rα(NR4) expressed in CTLL cells …. Put plainly: Scatchard analysis of 125I-IL-13 binding to CTLL cells expressing the IL-13Rα(NR4). The procedure:
Data have been normalised to 1×10⁴ COS cells and 1×10⁶ CTLL cells and binding was carried out on ice for 2 to 4 hours.
A likely candidate based on previous studies is the IL-4Rα.

The IC50 is the concentration that gives 50% inhibition. High values mean weaker potency in that assay, low ones greater potency in that assay. Usually Kd stands for a measure of binding affinity in units of concentration. Read a low Kd as tighter binding.

T1 sequence (P16382 26-810): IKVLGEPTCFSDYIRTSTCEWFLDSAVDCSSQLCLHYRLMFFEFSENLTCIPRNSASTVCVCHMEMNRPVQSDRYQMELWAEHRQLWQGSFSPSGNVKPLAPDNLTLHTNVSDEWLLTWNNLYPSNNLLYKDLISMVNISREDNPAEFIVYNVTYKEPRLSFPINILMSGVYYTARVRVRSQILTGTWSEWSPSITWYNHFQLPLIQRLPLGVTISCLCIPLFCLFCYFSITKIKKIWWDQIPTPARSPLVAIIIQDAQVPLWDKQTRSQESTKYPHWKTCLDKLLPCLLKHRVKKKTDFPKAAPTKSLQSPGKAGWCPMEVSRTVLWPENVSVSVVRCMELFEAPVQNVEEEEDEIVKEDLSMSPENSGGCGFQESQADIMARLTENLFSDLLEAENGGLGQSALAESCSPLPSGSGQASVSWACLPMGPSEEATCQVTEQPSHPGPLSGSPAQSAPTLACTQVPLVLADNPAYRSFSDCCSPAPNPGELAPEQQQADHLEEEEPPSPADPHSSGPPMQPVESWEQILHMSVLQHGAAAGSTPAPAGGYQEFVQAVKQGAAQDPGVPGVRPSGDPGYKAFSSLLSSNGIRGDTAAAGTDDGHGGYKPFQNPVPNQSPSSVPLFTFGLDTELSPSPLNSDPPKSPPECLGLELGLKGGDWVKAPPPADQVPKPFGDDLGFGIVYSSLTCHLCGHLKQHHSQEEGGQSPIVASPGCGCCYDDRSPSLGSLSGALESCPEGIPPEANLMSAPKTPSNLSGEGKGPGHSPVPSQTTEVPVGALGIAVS

B1: IL-13 (obtained commercially, R & D Systems) (ligand)
chain: APGPVPRSVSLPLTLKELIEELSNITQDQTPLCNGSMVWSVDLAAGGFCVALDSLTNISNCNAIYRTQRILHGLCNRKAPTTVSSLPDTKIEVAHFITKLLSYTKQLFRHGPF
modifications: Radioiodinated (125I, iodine monochloride method) in the labelled form.
notes: the receptor and the cells are murine; also called unlabelled IL-13
Regarding B1, the IC50 in experiment [1] is roughly 300 pM. Moreover, the figures for the Kd in experiment [2] and in experiment [3] were 2000 to 10000 pM and roughly 75 pM, respectively.
